Measured values published in US20250188146A1.
Blank lines part the entries; values can stand above or below the binder they belong to.

Assays:
[1] = molecular target: CLDN18.2 on KATO III-18.2+ cells (UniProt P56856); assay: cell-based or functional assay
CD19 = CD19 (UniProt P15391); assay: cell-based or functional assay
Chain of CD19 (P15391 20-556 limits assumed): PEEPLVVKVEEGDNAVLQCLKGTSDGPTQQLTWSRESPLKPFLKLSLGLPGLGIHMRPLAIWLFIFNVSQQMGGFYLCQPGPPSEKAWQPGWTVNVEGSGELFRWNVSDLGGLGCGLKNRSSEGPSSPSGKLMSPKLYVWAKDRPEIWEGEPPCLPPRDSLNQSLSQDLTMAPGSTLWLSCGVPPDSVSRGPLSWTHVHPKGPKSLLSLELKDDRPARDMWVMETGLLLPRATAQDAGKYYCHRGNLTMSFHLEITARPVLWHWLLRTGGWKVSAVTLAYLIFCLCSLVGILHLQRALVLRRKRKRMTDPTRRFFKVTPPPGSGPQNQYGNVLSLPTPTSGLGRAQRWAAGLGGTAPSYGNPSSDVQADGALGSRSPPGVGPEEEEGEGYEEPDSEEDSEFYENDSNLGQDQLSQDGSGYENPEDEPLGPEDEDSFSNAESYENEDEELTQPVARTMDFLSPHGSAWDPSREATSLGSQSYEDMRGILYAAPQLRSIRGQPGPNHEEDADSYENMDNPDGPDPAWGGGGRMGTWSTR

CD137 expression of CAR T CD8+ cells, co-culture 48 h with KATO III-18.2+ [1]: 8.77%
B1: 18.2 CAR (protein, part only; not given: Hinge, transmembrane and signaling domains, part only)
chain, part: DIVMTQSPSSLTVTAGEKVTMSCKSSQSLLNSGNQKNYLTWYQQKPGQPPKLLIYWASTRESGVPDRFTGSGSGTDFTLTISSVQAEDLAVYYCQNDYSYPFTFGSGTKLEIKGGGGSGGGGSGGGGSQVQLQQPGAELVRPGASVKLSCKASGYTFTSYWINWVKQRPGQGLEWIGNIYPSDSYTNYNQKFKDKATLTVDKSSSTAYMQLSSPTSEDSAVYYCTRSWRGNSFDYWGQGTTLTVSS

CD25, hCAR+ cells; K19 co-culture 24 h; PBMC+, IL6+, IL15- (CD19): 48.3%
CD25, hCAR+ cells; K19 co-culture 24 h; PBMC+, IL6-, IL15- (CD19): 53%
CD25, hCAR+ cells; K19 co-culture 24 h; PBMC-, IL6+, IL15- (CD19): 52.3%
CD25, hCAR+ cells; K19 co-culture 24 h; PBMC-, IL6-, IL15+ (CD19): 57.1%
CD25, hCAR+ cells; K19 co-culture 24 h; PBMC-, IL6-, IL15- (CD19): 53.1%
CD25, hCAR+ cells; K19 co-culture 48 h; PBMC+, IL6+, IL15- (CD19): 34.2%
CD25, hCAR+ cells; K19 co-culture 48 h; PBMC+, IL6-, IL15- (CD19): 35.8%
CD25, hCAR+ cells; K19 co-culture 48 h; PBMC-, IL6+, IL15- (CD19): 39.1%
CD25, hCAR+ cells; K19 co-culture 48 h; PBMC-, IL6-, IL15+ (CD19): 43.4%
CD25, hCAR+ cells; K19 co-culture 48 h; PBMC-, IL6-, IL15- (CD19): 41.5%
CD25 MFI, hCAR+ cells; K19 co-culture 24 h; PBMC+, IL6+, IL15- (CD19): 6740 MFI
CD25 MFI, hCAR+ cells; K19 co-culture 24 h; PBMC+, IL6-, IL15- (CD19): 7080 MFI
CD25 MFI, hCAR+ cells; K19 co-culture 24 h; PBMC-, IL6+, IL15- (CD19): 6480 MFI
CD25 MFI, hCAR+ cells; K19 co-culture 24 h; PBMC-, IL6-, IL15+ (CD19): 6060 MFI
CD25 MFI, hCAR+ cells; K19 co-culture 24 h; PBMC-, IL6-, IL15- (CD19): 6200 MFI
CD25 MFI, hCAR+ cells; K19 co-culture 48 h; PBMC+, IL6+, IL15- (CD19): 11200 MFI
CD25 MFI, hCAR+ cells; K19 co-culture 48 h; PBMC+, IL6-, IL15- (CD19): 11800 MFI
CD25 MFI, hCAR+ cells; K19 co-culture 48 h; PBMC-, IL6+, IL15- (CD19): 12300 MFI
CD25 MFI, hCAR+ cells; K19 co-culture 48 h; PBMC-, IL6-, IL15+ (CD19): 11400 MFI
CD25 MFI, hCAR+ cells; K19 co-culture 48 h; PBMC-, IL6-, IL15- (CD19): 11100 MFI
CD137, hCAR+ cells; K19 co-culture 24 h; PBMC+, IL6+, IL15- (CD19): 35.6%
CD137, hCAR+ cells; K19 co-culture 24 h; PBMC+, IL6-, IL15- (CD19): 39.9%
CD137, hCAR+ cells; K19 co-culture 24 h; PBMC-, IL6+, IL15- (CD19): 55.8%
CD137, hCAR+ cells; K19 co-culture 24 h; PBMC-, IL6-, IL15+ (CD19): 62.1%
CD137, hCAR+ cells; K19 co-culture 24 h; PBMC-, IL6-, IL15- (CD19): 57.4%
CD137, hCAR+ cells; K19 co-culture 48 h; PBMC+, IL6+, IL15- (CD19): 28%
CD137, hCAR+ cells; K19 co-culture 48 h; PBMC+, IL6-, IL15- (CD19): 47.1%
CD137, hCAR+ cells; K19 co-culture 48 h; PBMC-, IL6+, IL15- (CD19): 57.6%
CD137, hCAR+ cells; K19 co-culture 48 h; PBMC-, IL6-, IL15+ (CD19): 58.6%
CD137, hCAR+ cells; K19 co-culture 48 h; PBMC-, IL6-, IL15- (CD19): 57.3%
CD137MFI, hCAR+ cells; K19 co-culture 24 h; PBMC+, IL6+, IL15- (CD19): 18100 MFI
CD137MFI, hCAR+ cells; K19 co-culture 24 h; PBMC+, IL6-, IL15- (CD19): 19000 MFI
CD137MFI, hCAR+ cells; K19 co-culture 24 h; PBMC-, IL6+, IL15- (CD19): 23400 MFI
CD137MFI, hCAR+ cells; K19 co-culture 24 h; PBMC-, IL6-, IL15+ (CD19): 25500 MFI
CD137MFI, hCAR+ cells; K19 co-culture 24 h; PBMC-, IL6-, IL15- (CD19): 26800 MFI
CD137MFI, hCAR+ cells; K19 co-culture 48 h; PBMC+, IL6+, IL15- (CD19): 43000 MFI
CD137MFI, hCAR+ cells; K19 co-culture 48 h; PBMC+, IL6-, IL15- (CD19): 24800 MFI
CD137MFI, hCAR+ cells; K19 co-culture 48 h; PBMC-, IL6+, IL15- (CD19): 51500 MFI
CD137MFI, hCAR+ cells; K19 co-culture 48 h; PBMC-, IL6-, IL15+ (CD19): 51900 MFI
CD137MFI, hCAR+ cells; K19 co-culture 48 h; PBMC-, IL6-, IL15- (CD19): 52600 MFI
CD137 expression of CAR T CD8+ cells, co-culture 48 h with Nalm-6 (CD19): 11.1%
IFN-γ release, background subtracted; K19 co-culture 24 h; PBMC+, IL6+, IL15- (CD19): 64300
IFN-γ release, background subtracted; K19 co-culture 24 h; PBMC+, IL6-, IL15- (CD19): 64800
IFN-γ release, background subtracted; K19 co-culture 24 h; PBMC-, IL6+, IL15- (CD19): 19200
IFN-γ release, background subtracted; K19 co-culture 24 h; PBMC-, IL6-, IL15+ (CD19): 21300
IFN-γ release, background subtracted; K19 co-culture 24 h; PBMC-, IL6-, IL15- (CD19): 16000
IFN-γ release, background subtracted; K19 co-culture 48 h; PBMC+, IL6+, IL15- (CD19): 152000
IFN-γ release, background subtracted; K19 co-culture 48 h; PBMC+, IL6-, IL15- (CD19): 160000
IFN-γ release, background subtracted; K19 co-culture 48 h; PBMC-, IL6+, IL15- (CD19): 120000
IFN-γ release, background subtracted; K19 co-culture 48 h; PBMC-, IL6-, IL15+ (CD19): 134000
IFN-γ release, background subtracted; K19 co-culture 48 h; PBMC-, IL6-, IL15- (CD19): 114000
B2: CD19 CAR with humanized CD19 scFv (binding domain SEQ ID NO: 5) (protein, not shown: a dimerising Fc or GST)
chain: DIQMTQSPSSLSASVGDRVTITCRASQDISKYLNWYQQKPGKAPKLLIYHTSRLHSGVPSRFSGSGSGTDFTLTISSLQPEDFATYYCQQGNTLPYTFGQGTKVEIKGGGGSGGGGSGGGGSEVQLVESGGGLVQPGGSLRLSCAASGVSLPDYGVSWVRQAPGKGLEWVSVIWGSETTYYNSALKSRFTISRDNAKNSLYLQMNSLRAEDTAVYYCAKHYYYGGSYAMDYWGQGTLVTVSS
